Data: publication PMC12392869 (Advanced Materials (Deerfield Beach, Fla.), 2025)

Target: T1, integrin α5β1 on cells (human (endogenous in K562 and MCF10A), UniProt P08648 42-1049; P05556 21-798)
T1 construct: integrin α5 subunit, endogenous; integrin β1 subunit, endogenous; also called intact α5β1; cellular α5β1; source: endogenous, on K562 cells (flow cytometry) and on MCF10A Cas-mScarlet cells (TIRF microscopy)
Assay: flow cytometry on cells; competition: unlabelled competitor titrated against 5 nM CF647-NeoNectin on K562 cells, L15 medium with 1% BSA, 2 h at room temperature; KD = EC50/(1 + CL/KD,L)
Conditions: one partner purified

T1 sequence (P08648 42-1049, chain 1 of 2): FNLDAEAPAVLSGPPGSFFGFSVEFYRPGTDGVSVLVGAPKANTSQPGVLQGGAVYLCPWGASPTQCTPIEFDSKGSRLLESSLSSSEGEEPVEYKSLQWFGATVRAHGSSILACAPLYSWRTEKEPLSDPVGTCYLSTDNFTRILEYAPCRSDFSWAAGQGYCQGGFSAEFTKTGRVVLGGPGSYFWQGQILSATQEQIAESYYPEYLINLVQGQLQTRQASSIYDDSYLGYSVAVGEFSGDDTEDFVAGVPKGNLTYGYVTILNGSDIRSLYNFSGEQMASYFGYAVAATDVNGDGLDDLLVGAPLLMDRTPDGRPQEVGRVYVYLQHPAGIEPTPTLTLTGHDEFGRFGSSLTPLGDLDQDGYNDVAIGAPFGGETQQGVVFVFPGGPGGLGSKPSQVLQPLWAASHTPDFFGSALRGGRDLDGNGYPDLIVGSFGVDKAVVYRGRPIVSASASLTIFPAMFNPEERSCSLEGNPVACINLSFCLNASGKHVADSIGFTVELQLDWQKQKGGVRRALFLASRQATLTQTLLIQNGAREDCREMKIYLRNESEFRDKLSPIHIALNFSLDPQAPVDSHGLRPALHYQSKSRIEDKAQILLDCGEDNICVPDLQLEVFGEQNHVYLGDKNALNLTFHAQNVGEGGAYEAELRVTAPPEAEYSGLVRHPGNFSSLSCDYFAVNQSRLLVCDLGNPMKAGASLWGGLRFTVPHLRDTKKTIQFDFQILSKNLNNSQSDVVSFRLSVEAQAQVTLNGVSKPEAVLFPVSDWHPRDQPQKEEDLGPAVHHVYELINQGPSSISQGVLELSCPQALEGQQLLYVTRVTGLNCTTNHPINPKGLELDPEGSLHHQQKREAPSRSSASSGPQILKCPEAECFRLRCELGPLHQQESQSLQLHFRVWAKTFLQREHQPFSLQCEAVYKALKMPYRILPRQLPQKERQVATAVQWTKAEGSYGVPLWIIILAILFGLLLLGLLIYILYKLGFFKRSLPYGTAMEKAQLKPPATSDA
T1 sequence (P05556 21-798, chain 2 of 2): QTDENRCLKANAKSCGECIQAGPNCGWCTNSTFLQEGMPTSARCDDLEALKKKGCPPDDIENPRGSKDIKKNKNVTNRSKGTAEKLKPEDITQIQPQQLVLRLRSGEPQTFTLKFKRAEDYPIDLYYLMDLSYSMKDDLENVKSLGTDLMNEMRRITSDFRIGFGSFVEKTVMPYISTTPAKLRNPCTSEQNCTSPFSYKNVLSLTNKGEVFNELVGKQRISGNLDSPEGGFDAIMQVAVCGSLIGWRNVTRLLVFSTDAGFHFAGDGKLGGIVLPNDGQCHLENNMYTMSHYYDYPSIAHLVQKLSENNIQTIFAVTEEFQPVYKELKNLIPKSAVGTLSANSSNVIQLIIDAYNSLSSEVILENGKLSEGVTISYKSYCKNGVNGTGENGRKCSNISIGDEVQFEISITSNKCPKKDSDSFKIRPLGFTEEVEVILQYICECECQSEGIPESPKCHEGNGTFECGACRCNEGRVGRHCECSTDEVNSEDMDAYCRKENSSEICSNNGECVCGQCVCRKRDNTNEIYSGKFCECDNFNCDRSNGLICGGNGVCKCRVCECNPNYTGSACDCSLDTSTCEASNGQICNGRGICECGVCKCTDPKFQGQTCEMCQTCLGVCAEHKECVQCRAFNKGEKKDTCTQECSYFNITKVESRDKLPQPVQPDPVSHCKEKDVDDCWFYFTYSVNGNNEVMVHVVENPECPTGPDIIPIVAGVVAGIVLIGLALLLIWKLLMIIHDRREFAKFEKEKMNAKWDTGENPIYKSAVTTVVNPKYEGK

Kd: 150 µM
Binder: GRRGDGATGH (source: synthetic peptide) [RGD peptide (GRRGDGATGH)]
